Laboratory results as given in patent US20220204580A1 (AstraZeneca / MedImmune, published 2022).
Numbered stars: 1 amine (or outer) side, 2 acyl side, 3 side chain; on linkers, the order of the positions; unused ones are H or OH. Bridge positions count the residues as written; N and C are the ends. Square brackets hold non-standard residues; d marks the D form. Side chains are listed from the residue outwards. Ends that are not written are not given here. * marks the point of attachment. C18 diacid = O=C(O)CCCCCCCCCCCCCCCCC(=O)*; γGlu = O=C(O)[C@H](CCC(=O)[*:2])N[*:1]; Aib = CC(C)(N)C(=O)O

T1: human calcitonin receptor (human, UniProt P30988 25-474)
T1 sequence (looked up): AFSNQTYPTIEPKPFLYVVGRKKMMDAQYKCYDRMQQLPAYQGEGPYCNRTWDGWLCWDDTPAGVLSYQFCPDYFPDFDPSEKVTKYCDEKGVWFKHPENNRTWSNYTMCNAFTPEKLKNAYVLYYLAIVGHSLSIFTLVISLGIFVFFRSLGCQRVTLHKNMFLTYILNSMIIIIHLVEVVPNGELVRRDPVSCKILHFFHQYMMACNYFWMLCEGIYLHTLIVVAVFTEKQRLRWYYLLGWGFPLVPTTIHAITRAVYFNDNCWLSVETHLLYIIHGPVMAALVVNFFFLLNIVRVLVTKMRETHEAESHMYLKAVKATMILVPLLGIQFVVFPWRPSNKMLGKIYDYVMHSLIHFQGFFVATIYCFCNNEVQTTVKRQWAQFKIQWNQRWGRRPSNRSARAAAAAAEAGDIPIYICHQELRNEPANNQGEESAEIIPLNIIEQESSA

T2: human amylin receptor (calcitonin receptor co-expressed with receptor activity modifying protein, RAMP3) (human, UniProt P30988 25-474; O60896 24-148)
T2 sequence (looked up) 1: T1 sequence (looked up)
T2 sequence (looked up) 2: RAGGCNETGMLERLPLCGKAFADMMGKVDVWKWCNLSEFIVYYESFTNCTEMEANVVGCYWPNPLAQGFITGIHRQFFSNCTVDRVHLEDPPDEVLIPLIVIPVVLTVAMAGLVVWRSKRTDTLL

B1: Peptide 111 (SEQ ID NO: 111) (peptide)
peptide: K([γGlu-C18 diacid])KCNTATCATQRLANFLVHSSNHFGPILPPTNVGSETY-NH2
modifications: disulfide 3-8; N-terminus assumed
SMILES: CC[C@H](C)[C@H](NC(=O)[C@@H]1CCCN1C(=O)CNC(=O)[C@H](Cc1ccccc1)NC(=O)[C@H](Cc1c[nH]cn1)NC(=O)[C@H](CC(N)=O)NC(=O)[C@H](CO)NC(=O)[C@H](CO)NC(=O)[C@H](Cc1c[nH]cn1)NC(=O)[C@@H](NC(=O)[C@H](CC(C)C)NC(=O)[C@H](Cc1ccccc1)NC(=O)[C@H](CC(N)=O)NC(=O)[C@H](C)NC(=O)[C@H](CC(C)C)NC(=O)[C@H](CCCNC(=N)N)NC(=O)[C@H](CCC(N)=O)NC(=O)[C@@H](NC(=O)[C@H](C)NC(=O)[C@@H]1CSSC[C@H](NC(=O)[C@H](CCCCN)NC(=O)[C@@H](N)CCCCNC(=O)CC[C@H](NC(=O)CCCCCCCCCCCCCCCCC(=O)O)C(=O)O)C(=O)N[C@@H](CC(N)=O)C(=O)N[C@@H]([C@@H](C)O)C(=O)N[C@@H](C)C(=O)N[C@@H]([C@@H](C)O)C(=O)N1)[C@@H](C)O)C(C)C)C(=O)N[C@@H](CC(C)C)C(=O)N1CCC[C@H]1C(=O)N1CCC[C@H]1C(=O)N[C@H](C(=O)N[C@@H](CC(N)=O)C(=O)N[C@H](C(=O)NCC(=O)N[C@@H](CO)C(=O)N[C@@H](CCC(=O)O)C(=O)N[C@H](C(=O)N[C@@H](Cc1ccc(O)cc1)C(N)=O)[C@@H](C)O)C(C)C)[C@@H](C)O
B2: Peptide 110 (SEQ ID NO: 110) (peptide)
peptide: K([γGlu-C18 diacid])KCNTATCATQRLANFLVHSSNNF[Aib]PILPPTNVGSNTY-NH2
modifications: disulfide 3-8; N-terminus assumed
SMILES: CC[C@H](C)[C@H](NC(=O)[C@@H]1CCCN1C(=O)C(C)(C)NC(=O)[C@H](Cc1ccccc1)NC(=O)[C@H](CC(N)=O)NC(=O)[C@H](CC(N)=O)NC(=O)[C@H](CO)NC(=O)[C@H](CO)NC(=O)[C@H](Cc1c[nH]cn1)NC(=O)[C@@H](NC(=O)[C@H](CC(C)C)NC(=O)[C@H](Cc1ccccc1)NC(=O)[C@H](CC(N)=O)NC(=O)[C@H](C)NC(=O)[C@H](CC(C)C)NC(=O)[C@H](CCCNC(=N)N)NC(=O)[C@H](CCC(N)=O)NC(=O)[C@@H](NC(=O)[C@H](C)NC(=O)[C@@H]1CSSC[C@H](NC(=O)[C@H](CCCCN)NC(=O)[C@@H](N)CCCCNC(=O)CC[C@H](NC(=O)CCCCCCCCCCCCCCCCC(=O)O)C(=O)O)C(=O)N[C@@H](CC(N)=O)C(=O)N[C@@H]([C@@H](C)O)C(=O)N[C@@H](C)C(=O)N[C@@H]([C@@H](C)O)C(=O)N1)[C@@H](C)O)C(C)C)C(=O)N[C@@H](CC(C)C)C(=O)N1CCC[C@H]1C(=O)N1CCC[C@H]1C(=O)N[C@H](C(=O)N[C@@H](CC(N)=O)C(=O)N[C@H](C(=O)NCC(=O)N[C@@H](CO)C(=O)N[C@@H](CC(N)=O)C(=O)N[C@H](C(=O)N[C@@H](Cc1ccc(O)cc1)C(N)=O)[C@@H](C)O)C(C)C)[C@@H](C)O
B3: Peptide 108 (SEQ ID NO: 108) (peptide)
peptide: K([γGlu-C18 diacid])KCNTATCATQRLANFLVHSSNNFGPI[Aib]PPTNVGSNTY-NH2
modifications: disulfide 3-8; N-terminus assumed
SMILES: CC[C@H](C)[C@H](NC(=O)[C@@H]1CCCN1C(=O)CNC(=O)[C@H](Cc1ccccc1)NC(=O)[C@H](CC(N)=O)NC(=O)[C@H](CC(N)=O)NC(=O)[C@H](CO)NC(=O)[C@H](CO)NC(=O)[C@H](Cc1c[nH]cn1)NC(=O)[C@@H](NC(=O)[C@H](CC(C)C)NC(=O)[C@H](Cc1ccccc1)NC(=O)[C@H](CC(N)=O)NC(=O)[C@H](C)NC(=O)[C@H](CC(C)C)NC(=O)[C@H](CCCNC(=N)N)NC(=O)[C@H](CCC(N)=O)NC(=O)[C@@H](NC(=O)[C@H](C)NC(=O)[C@@H]1CSSC[C@H](NC(=O)[C@H](CCCCN)NC(=O)[C@@H](N)CCCCNC(=O)CC[C@H](NC(=O)CCCCCCCCCCCCCCCCC(=O)O)C(=O)O)C(=O)N[C@@H](CC(N)=O)C(=O)N[C@@H]([C@@H](C)O)C(=O)N[C@@H](C)C(=O)N[C@@H]([C@@H](C)O)C(=O)N1)[C@@H](C)O)C(C)C)C(=O)NC(C)(C)C(=O)N1CCC[C@H]1C(=O)N1CCC[C@H]1C(=O)N[C@H](C(=O)N[C@@H](CC(N)=O)C(=O)N[C@H](C(=O)NCC(=O)N[C@@H](CO)C(=O)N[C@@H](CC(N)=O)C(=O)N[C@H](C(=O)N[C@@H](Cc1ccc(O)cc1)C(N)=O)[C@@H](C)O)C(C)C)[C@@H](C)O
B4: Peptide 109 (SEQ ID NO: 109) (peptide)
peptide: K([γGlu-C18 diacid])KCNTATCATQRLANFLVHSSN[Aib]FGPILPPTNVGSNTY-NH2
modifications: disulfide 3-8; N-terminus assumed
SMILES: CC[C@H](C)[C@H](NC(=O)[C@@H]1CCCN1C(=O)CNC(=O)[C@H](Cc1ccccc1)NC(=O)C(C)(C)NC(=O)[C@H](CC(N)=O)NC(=O)[C@H](CO)NC(=O)[C@H](CO)NC(=O)[C@H](Cc1c[nH]cn1)NC(=O)[C@@H](NC(=O)[C@H](CC(C)C)NC(=O)[C@H](Cc1ccccc1)NC(=O)[C@H](CC(N)=O)NC(=O)[C@H](C)NC(=O)[C@H](CC(C)C)NC(=O)[C@H](CCCNC(=N)N)NC(=O)[C@H](CCC(N)=O)NC(=O)[C@@H](NC(=O)[C@H](C)NC(=O)[C@@H]1CSSC[C@H](NC(=O)[C@H](CCCCN)NC(=O)[C@@H](N)CCCCNC(=O)CC[C@H](NC(=O)CCCCCCCCCCCCCCCCC(=O)O)C(=O)O)C(=O)N[C@@H](CC(N)=O)C(=O)N[C@@H]([C@@H](C)O)C(=O)N[C@@H](C)C(=O)N[C@@H]([C@@H](C)O)C(=O)N1)[C@@H](C)O)C(C)C)C(=O)N[C@@H](CC(C)C)C(=O)N1CCC[C@H]1C(=O)N1CCC[C@H]1C(=O)N[C@H](C(=O)N[C@@H](CC(N)=O)C(=O)N[C@H](C(=O)NCC(=O)N[C@@H](CO)C(=O)N[C@@H](CC(N)=O)C(=O)N[C@H](C(=O)N[C@@H](Cc1ccc(O)cc1)C(N)=O)[C@@H](C)O)C(C)C)[C@@H](C)O

Each binder was assayed against T1, human calcitonin receptor (assay: cell-based or functional assay).

Row | EC50 (cAMP production) | Binder
1 | 1.88 nM | B1
2 | 0.541 nM | B2
3 | 6.81 nM | B3
4 | 0.176 nM | B4

The binders below were run against T2, human amylin receptor (calcitonin …) (assay: cell-based or functional assay).

Row | EC50 (cAMP production) | Ratio (EC50 hCTR / EC50 hAMYR3) | Binder
5 | 0.403 nM | 5 | B1
6 | 0.204 nM | 3 | B2
7 | 0.801 nM | 8 | B3
8 | 0.082 nM | 2 | B4
